Assay results as given in the supplement of paper PMC11246515.
± gives the standard deviation of the averaged measurements.

Assay: total protein half-life in vivo (active degradation + dilution); higher = more stable protein
[1] = E. coli NCM3722 delta-clpP delta-lon delta-hslV, growth: N-lim chemostat, doubling time 6 h
[2] = E. coli NCM3722 delta-clpP, growth: N-lim chemostat, doubling time 6 h
[3] = E. coli NCM3722 delta-hslV, growth: N-lim chemostat, doubling time 6 h
[4] = E. coli NCM3722 delta-lon, growth: N-lim chemostat, doubling time 6 h
[5] = E. coli NCM3722 delta-smpB, growth: N-lim chemostat, doubling time 6 h
[6] = wild type E. coli NCM3722, growth: C-lim chemostat, doubling time 12 h
[7] = wild type E. coli NCM3722, growth: N-lim chemostat, doubling time 6 h
[8] = wild type E. coli NCM3722, growth: N-lim chemostat, doubling time 12 h
[9] = wild type E. coli NCM3722, growth: P-lim chemostat, doubling time 6 h
[10] = wild type E. coli NCM3722, growth: P-lim chemostat, doubling time 12 h
[11] = wild type E. coli NCM3722, growth: C-lim chemostat, doubling time 3 h
[12] = wild type E. coli NCM3722, growth: C-lim chemostat, doubling time 6 h

Q: Which “total protein half-life in vivo” value [1] does the source give for “MEWIADPSIWAGLITLIVIELVLGIDNLVFIAILAEKLPPKQRDRARVTGLLLAMLMRLLLLASISWLVTLTQPLFSFRSFTFSARDLIMLFGGFFLLFKATMELNERLEGKDSNNPTQRKGAKFWGVVTQIVVLDAIFSLDSVITAVGMVDHLLVMMAAVVIAISLMLMASKPLTQFVNSHPTIVILCLSFLLMIGFSLVAEGFGFVIPKGYLYAAIGFSVMIEALNQLAIFNRRRFLSANQTLRQRTTEAVMRLLSGQKEDAELDAETASMLVDHGNQQIFNPQERRMIERVLNLNQRTVSSIMTSRHDIEHIDLNAPEEEIRQLLERNQHTRLVVTDGDDAEDLLGVVHVIDLLQQSLRGEPLNLRVLIRQPLVFPETLPLLPALEQFRNARTHFAFVVDEFGSVEGIVTLSDVTETIAGNLPNEVEEIDARHDIQKNADGSWTANGHMPLEDLVQYVPLPLDEKREYHTIAGLLMEYLQRIPKPGEEVQVGDYLLKTLQVESHRVQKVQIIPLRKDGEMEYEV” here?
A: 6.68 ± 1.2 h

Q: What about the “total protein half-life in vivo” value [2] of the same sequence?
A: 6.24 ± 0.2 h

Q: And the “total protein half-life in vivo” value [3]?
A: 6.92 ± 0.87 h

Q: And the “total protein half-life in vivo” value [4]?
A: 6.34 ± 0.46 h

Q: What about the “total protein half-life in vivo” value [5] of the same sequence?
A: 6.27 ± 0.67 h

Q: And the “total protein half-life in vivo” value [6]?
A: 14.9 ± 0.52 h

Q: And the “total protein half-life in vivo” value [7]?
A: 6.24 ± 0.23 h

Q: What about the “total protein half-life in vivo” value [8] of the same sequence?
A: 12.28 ± 0.022 h

Q: What about the “total protein half-life in vivo” value [9] of the same sequence?
A: 6.598 ± 0.06 h

Q: And the “total protein half-life in vivo” value [10]?
A: 11.1 ± 2 h

Q: Which “total protein half-life in vivo” value [2] does the source give for “MYTRNLLWLVSLVSAAPLYAADVPANTPLAPQQVFRYNNHSDPGTLDPQKVEENTAAQIVLDLFEGLVWMDGEGQVQPAQAERWEILDGGKRYIFHLRSGLQWSDGQPLTAEDFVLGWQRAVDPKTASPFAGYLAQAHINNAAAIVAGKADVTSLGVKATDDRTLEVTLEQPVPWFTTMLAWPTLFPVPHHVIAKHGDSWSKPENMVYNGAFVLDQWVVNEKITARKNPKYRDAQHTVLQQVEYLALDNSVTGYNRYRAGEVDLTWVPAQQIPAIEKSLPGELRIIPRLNSEYYNFNLEKPPFNDVRVRRALYLTVDRQLIAQKVLGLRTPATTLTPPEVKGFSATTFDELQKPMSERVAMAKALLKQAGYDASHPLRFELFYNKYDLHEKTAIALSSEWKKWLGAQVTLRTMEWKTYLDARRAGDFMLSRQSWDATYNDASSFLNTLKSDSEENVGHWKNAQYDALLNQATQITDATKRNALYQQAEVIINQQAPLIPIYYQPLIKLLKPYVGGFPLHNPQDYVYSKELYIKAH” here?
A: 5.575 ± 0.035 h

Q: What about the “total protein half-life in vivo” value [3] of the same sequence?
A: 6.61 ± 1.4 h

Q: And the “total protein half-life in vivo” value [4]?
A: 6.72 ± 0.075 h

Q: What about the “total protein half-life in vivo” value [5] of the same sequence?
A: 5.64 ± 0.24 h

Q: And the “total protein half-life in vivo” value [11]?
A: 2.9 ± 0.11 h

Q: What about the “total protein half-life in vivo” value [12] of the same sequence?
A: 5.96 ± 0.64 h

Q: And the “total protein half-life in vivo” value [6]?
A: 11 ± 0.65 h

Q: What about the “total protein half-life in vivo” value [7] of the same sequence?
A: 5.531 ± 0.0077 h

Q: What about the “total protein half-life in vivo” value [9] of the same sequence?
A: 5.83 ± 0.61 h

Q: And the “total protein half-life in vivo” value [10]?
A: 11.7 ± 0.71 h

Q: Which results are given for “MSLPHCPKCNSEYTYEDNGMYICPECAYEWNDAEPAQESDELIVKDANGNLLADGDSVTIIKDLKVKGSSSMLKIGTKVKNIRLVEGDHNIDCKIDGFGPMKLKSEFVKKN [P0AFJ1]”?
A: total protein half-life in vivo [1]: 5.52 ± 0.25 h; total protein half-life in vivo [3]: 6.14 ± 1.1 h; total protein half-life in vivo [4]: 5.91 ± 1 h; total protein half-life in vivo [5]: 4.71 ± 0.15 h; total protein half-life in vivo [11]: 2.53 ± 0.093 h; total protein half-life in vivo [6]: 10.2 ± 0.45 h; total protein half-life in vivo [7]: 4.88 h; total protein half-life in vivo [8]: 10.2 ± 0.21 h; total protein half-life in vivo [9]: 5.38 ± 0.21 h

Q: Which results are given for “MRLSDYFPESSISVIHSAKDWQEAIDFSMVSLLDKNYISENYIQAIKDSTINNGPYYILAPGVAMPHARPECGALKTGMSLTLLEQGVYFPGNDEPIKLLIGLSAADADSHIGAIQALSELLCEEEILEQLLTASSEKQLADIISRG”?
A: total protein half-life in vivo [11]: 3.24 ± 0.38 h; total protein half-life in vivo [12]: 4.03 h; total protein half-life in vivo [6]: 8.65 h

Q: For “MKKPLRQQNRQIISYVPRTEPAPPEHAIKMDSFRDVWMLRGKYVAFVLMGESFLRSPAFTVPESAQRWANQIRQEGEVTE [P0AE60]”, which “total protein half-life in vivo” value [2] is on record?
A: 5.19 h

Q: What about the “total protein half-life in vivo” value [3] of the same sequence?
A: 3.87 h

Q: And the “total protein half-life in vivo” value [7]?
A: 3.66 h

Q: And the “total protein half-life in vivo” value [8]?
A: 6.6 h

Q: What about the “total protein half-life in vivo” value [9] of the same sequence?
A: 4.26 ± 1.1 h

Q: What about the “total protein half-life in vivo” value [10] of the same sequence?
A: 9.35 h

Q: With “MCELLGMSANVPTDICFSFTGLVQRGGGTGPHKDGWGITFYEGKGCRTFKDPQPSFNSPIAKLVQDYPIKSCSVVAHIRQANRGEVALENTHPFTRELWGRNWTYAHNGQLTGYKSLETGNFRPVGETDSEKAFCWLLHKLTQRYPRTPGNMAAVFKYIASLADELRQKGVFNMLLSDGRYVMAYCSTNLHWITRRAPFGVATLLDQDVEIDFSSQTTPNDVVTVIATQPLTGNETWQKIMPGEWRLFCLGERVV” as the sequence, how does the “total protein half-life in vivo” value [1] read?
A: 6.35 ± 0.88 h

Q: And the “total protein half-life in vivo” value [2]?
A: 5.84 ± 0.22 h

Q: And the “total protein half-life in vivo” value [3]?
A: 5.68 ± 0.45 h

Q: What about the “total protein half-life in vivo” value [4] of the same sequence?
A: 6.32 ± 0.5 h

Q: And the “total protein half-life in vivo” value [5]?
A: 5.67 ± 0.13 h

Q: And the “total protein half-life in vivo” value [11]?
A: 3.37 ± 0.54 h

Q: And the “total protein half-life in vivo” value [12]?
A: 6.2 ± 0.066 h

Q: And the “total protein half-life in vivo” value [6]?
A: 12.6 ± 1.6 h

Q: And the “total protein half-life in vivo” value [7]?
A: 5.695 ± 0.045 h

Q: What about the “total protein half-life in vivo” value [8] of the same sequence?
A: 12.2 ± 1.4 h

Q: What about the “total protein half-life in vivo” value [9] of the same sequence?
A: 5.83 ± 0.3 h

Q: And the “total protein half-life in vivo” value [10]?
A: 12.5 ± 0.73 h

Q: With “MKIFLENLYHSDCYFLPIRDNQQVLVGVELITHFSSEDGTVRIPTSRVIAQLTEEQHWQLFSEQLELLKSCQHFFIQHKLFAWLNLTPQVATLLLERDNYAGELLKYPFIELLINENYPHLNEGKDNRGLLSLSQVYPLVLGNLGAGNSTMKAVFDGLFTRVMLDKSFIQQQITHRSFEPFIRAIQAQISPCCNCIIAGGIDTAEILAQITPFDFHALQGCLWPAVPINQITTLVQR” as the sequence, how does the “total protein half-life in vivo” value [1] read?
A: 4.97 ± 0.65 h

Q: And the “total protein half-life in vivo” value [2]?
A: 4.111 ± 0.0084 h

Q: And the “total protein half-life in vivo” value [3]?
A: 3.897 ± 0.0064 h

Q: What about the “total protein half-life in vivo” value [4] of the same sequence?
A: 4.44 ± 0.36 h

Q: And the “total protein half-life in vivo” value [5]?
A: 3.866 ± 0.031 h

Q: And the “total protein half-life in vivo” value [11]?
A: 2.99 ± 0.1 h

Q: What about the “total protein half-life in vivo” value [12] of the same sequence?
A: 6.47 ± 1.4 h

Q: And the “total protein half-life in vivo” value [6]?
A: 9.89 h

Q: And the “total protein half-life in vivo” value [7]?
A: 4.22 ± 0.84 h

Q: And the “total protein half-life in vivo” value [8]?
A: 7.69 ± 1.8 h

Q: What about the “total protein half-life in vivo” value [9] of the same sequence?
A: 5.87 ± 0.37 h

Q: What about the “total protein half-life in vivo” value [10] of the same sequence?
A: 11.5 ± 0.35 h
